Experimental data taken from the supplement of paper PMC9112550, “Optimization of the antimicrobial peptide Bac7 by deep mutational scanning” (BMC Biology, 2022).
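Further: peptides expressed intracellularly from a pBAD plasmid library in pooled LB shake-flask culture, induced with 0.3% L-arabinose, DNA abundance read by NGS, three biological replicates, DESeq2 with apeglm shrinkage.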

What follows are sequences tested on Escherichia coli TOP10 (assay: shrunken log2 fold change of peptide-encoding DNA abundance (4.5 h post-induction vs induction); higher = less antimicrobial activity (less host growth inhibition)). Details: time post-induction: 4.5 h; library: site-saturation at positions 5, 18, 19, 20.
RRIRPRPPRLPRPRPRPELKPRP was tested, and the “shrunken log2 fold change” value was 0.0877.
In the case of RRIRNRPPRLPRPRPRPKPTPRP, the “shrunken log2 fold change” value is reported as 0.133.
For RRIRKRPPRLPRPRPRPDFLPRP, the “shrunken log2 fold change” value was 0.179.
For RRIRVRPPRLPRPRPRPIRWPRP, the “shrunken log2 fold change” value was -0.0339.
With RRIRMRPPRLPRPRPRPIHRPRP the “shrunken log2 fold change” value was -0.154.
In the case of RRIRVRPPRLPRPRPRPAGEPRP, the “shrunken log2 fold change” value is reported as 0.339.
RRIRIRPPRLPRPRPRPFVQPRP was tested, and the “shrunken log2 fold change” value was -0.634.
RRIRIRPPRLPRPRPRPDLGPRP was tested, and the “shrunken log2 fold change” value was -0.0274.
RRIRARPPRLPRPRPRPWFIPRP was tested, and the “shrunken log2 fold change” value was -0.502.
With RRIRWRPPRLPRPRPRPSNRPRP the “shrunken log2 fold change” value was -0.174.
RRIRDRPPRLPRPRPRPAHCPRP was tested, and the “shrunken log2 fold change” value was -0.0402.
RRIRLRPPRLPRPRPRPNYHPRP was tested, and the “shrunken log2 fold change” value was -0.536.
With RRIRYRPPRLPRPRPRPASWPRP the “shrunken log2 fold change” value was 0.299.
For RRIRARPPRLPRPRPRPFLVPRP, the “shrunken log2 fold change” value was -0.205.
For RRIRRRPPRLPRPRPRPMPMPRP, the “shrunken log2 fold change” value was 0.0681.
In the case of RRIRRRPPRLPRPRPRPLLEPRP, the “shrunken log2 fold change” value is reported as 0.534.
With RRIRTRPPRLPRPRPRPDGGPRP the “shrunken log2 fold change” value was -0.145.
For RRIRCRPPRLPRPRPRPYRFPRP, the “shrunken log2 fold change” value was -0.746.
In the case of RRIRERPPRLPRPRPRPMQRPRP, the “shrunken log2 fold change” value is reported as -0.00559.
With RRIRPRPPRLPRPRPRPCDMPRP the “shrunken log2 fold change” value was -0.217.
In the case of RRIRWRPPRLPRPRPRPVYRPRP, the “shrunken log2 fold change” value is reported as -0.0858.
RRIRIRPPRLPRPRPRPTFFPRP was tested, and the “shrunken log2 fold change” value was -0.292.
For RRIRYRPPRLPRPRPRPILQPRP, the “shrunken log2 fold change” value was 0.049.
In the case of RRIRLRPPRLPRPRPRPMHWPRP, the “shrunken log2 fold change” value is reported as 0.0928.
With RRIRERPPRLPRPRPRPMHAPRP the “shrunken log2 fold change” value was 0.262.
RRIRKRPPRLPRPRPRPVGYPRP was tested, and the “shrunken log2 fold change” value was 0.00938.
With RRIRHRPPRLPRPRPRPRCYPRP the “shrunken log2 fold change” value was -0.154.
RRIRRRPPRLPRPRPRPQEVPRP was tested, and the “shrunken log2 fold change” value was -0.00192.
With RRIRYRPPRLPRPRPRPDKCPRP the “shrunken log2 fold change” value was -0.107.
In the case of RRIRDRPPRLPRPRPRPENNPRP, the “shrunken log2 fold change” value is reported as 0.264.
RRIRARPPRLPRPRPRPLMSPRP was tested, and the “shrunken log2 fold change” value was 0.302.
RRIRHRPPRLPRPRPRPAWYPRP was tested, and the “shrunken log2 fold change” value was -0.0318.
RRIRGRPPRLPRPRPRPPEAPRP was tested, and the “shrunken log2 fold change” value was 1.33.
RRIRTRPPRLPRPRPRPIFDPRP was tested, and the “shrunken log2 fold change” value was -0.337.
With RRIRARPPRLPRPRPRPKCKPRP the “shrunken log2 fold change” value was 0.278.
For RRIRSRPPRLPRPRPRPAGPPRP, the “shrunken log2 fold change” value was 0.493.
For RRIRGRPPRLPRPRPRPSPSPRP, the “shrunken log2 fold change” value was 0.649.
In the case of RRIRTRPPRLPRPRPRPTVAPRP, the “shrunken log2 fold change” value is reported as 0.22.
RRIRCRPPRLPRPRPRPHQQPRP was tested, and the “shrunken log2 fold change” value was 0.14.
With RRIRYRPPRLPRPRPRPNPEPRP the “shrunken log2 fold change” value was -0.0105.
For RRIRRRPPRLPRPRPRPCWEPRP, the “shrunken log2 fold change” value was 0.109.
With RRIRKRPPRLPRPRPRPDLHPRP the “shrunken log2 fold change” value was -0.0392.
With RRIRPRPPRLPRPRPRPNERPRP the “shrunken log2 fold change” value was 0.181.
In the case of RRIRWRPPRLPRPRPRPMDMPRP, the “shrunken log2 fold change” value is reported as -0.0589.
In the case of RRIRPRPPRLPRPRPRPQRLPRP, the “shrunken log2 fold change” value is reported as 0.0191.
In the case of RRIRCRPPRLPRPRPRPIDTPRP, the “shrunken log2 fold change” value is reported as -0.385.
RRIRNRPPRLPRPRPRPWMKPRP was tested, and the “shrunken log2 fold change” value was -0.0173.
In the case of RRIRGRPPRLPRPRPRPFEAPRP, the “shrunken log2 fold change” value is reported as 0.727.
In the case of RRIRRRPPRLPRPRPRPVMPPRP, the “shrunken log2 fold change” value is reported as 0.338.
With RRIRPRPPRLPRPRPRPRYQPRP the “shrunken log2 fold change” value was 0.0923.
For RRIRFRPPRLPRPRPRPCVRPRP, the “shrunken log2 fold change” value was -0.0911.
RRIRERPPRLPRPRPRPWCKPRP was tested, and the “shrunken log2 fold change” value was 0.00398.
With RRIRCRPPRLPRPRPRPHFAPRP the “shrunken log2 fold change” value was 0.0672.
With RRIRARPPRLPRPRPRPLMQPRP the “shrunken log2 fold change” value was 0.223.
For RRIRCRPPRLPRPRPRPHEPPRP, the “shrunken log2 fold change” value was -0.00114.
With RRIRCRPPRLPRPRPRPVCGPRP the “shrunken log2 fold change” value was 0.268.
RRIRGRPPRLPRPRPRPCIVPRP was tested, and the “shrunken log2 fold change” value was 0.201.
RRIRDRPPRLPRPRPRPHQIPRP was tested, and the “shrunken log2 fold change” value was -0.248.
With RRIRYRPPRLPRPRPRPSHEPRP the “shrunken log2 fold change” value was -0.0704.
RRIRCRPPRLPRPRPRPLHMPRP was tested, and the “shrunken log2 fold change” value was -0.295.
In the case of RRIRDRPPRLPRPRPRPDQWPRP, the “shrunken log2 fold change” value is reported as 0.396.
In the case of RRIRARPPRLPRPRPRPFGNPRP, the “shrunken log2 fold change” value is reported as -0.148.
With RRIRHRPPRLPRPRPRPSQIPRP the “shrunken log2 fold change” value was -0.0599.
In the case of RRIRERPPRLPRPRPRPQEAPRP, the “shrunken log2 fold change” value is reported as -0.018.
With RRIRNRPPRLPRPRPRPAKHPRP the “shrunken log2 fold change” value was 0.027.
With RRIRSRPPRLPRPRPRPLPHPRP the “shrunken log2 fold change” value was 0.277.
For RRIRFRPPRLPRPRPRPTMCPRP, the “shrunken log2 fold change” value was -0.274.
RRIRVRPPRLPRPRPRPNTAPRP was tested, and the “shrunken log2 fold change” value was -0.147.
In the case of RRIRMRPPRLPRPRPRPLIMPRP, the “shrunken log2 fold change” value is reported as -0.0525.
For RRIRNRPPRLPRPRPRPMFGPRP, the “shrunken log2 fold change” value was -0.23.
RRIRVRPPRLPRPRPRPEKHPRP was tested, and the “shrunken log2 fold change” value was -0.0527.
For RRIRRRPPRLPRPRPRPKSAPRP, the “shrunken log2 fold change” value was 0.237.
In the case of RRIRWRPPRLPRPRPRPFHHPRP, the “shrunken log2 fold change” value is reported as -0.077.
RRIRERPPRLPRPRPRPDIPPRP was tested, and the “shrunken log2 fold change” value was -0.366.
For RRIRIRPPRLPRPRPRPQRDPRP, the “shrunken log2 fold change” value was 0.0634.
